Assay results reported in patent publication US20030157554A1 (published 2003).

Columns and labels:
[1] = target: T1, S100B-1 (human, UniProt P04271 1-92); assay: Y2H, baits tested against each other
T1 construct: Full-length bait; also called full length S100B
T1 sequence (looked up): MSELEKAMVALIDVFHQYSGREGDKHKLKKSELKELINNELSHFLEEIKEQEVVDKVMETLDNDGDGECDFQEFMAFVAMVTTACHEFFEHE

[2] = target: T2, S100A1-1 (human, UniProt P23297 1-94); assay: Y2H, baits tested against each other
T2 construct: Full-length bait; also called full length S100A1
T2 sequence (looked up): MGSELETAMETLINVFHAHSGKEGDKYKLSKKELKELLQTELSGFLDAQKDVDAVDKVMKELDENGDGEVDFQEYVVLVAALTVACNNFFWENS

[3] = target: the molecule itself; assay: Y2H, baits tested against each other
[4] = target: T3, S100A9 (Genbank ID: M26311) (human, UniProt P06702 1-114); assay: Y2H 1x1 mating, binder AD fusion, target BD fusion
T3 construct: range 1-114; Prey from liver and muscle libraries
T3 sequence (looked up): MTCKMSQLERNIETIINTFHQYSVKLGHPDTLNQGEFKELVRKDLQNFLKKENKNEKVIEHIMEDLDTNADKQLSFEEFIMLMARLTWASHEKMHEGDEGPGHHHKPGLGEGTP

[5] = target: S100A6 (Genbank ID: M14300) (human, UniProt P06703 1-90); assay: Y2H 1x1 mating, binder AD fusion, target BD fusion
[6] = target: T4, STAU (Genbank ID: AF061939) (human, UniProt O95793 6-577); assay: Y2H 1x1 mating, binder AD fusion, target BD fusion
T4 construct: range 6-578; Prey from brain library; also called Staufen
T4 sequence (looked up): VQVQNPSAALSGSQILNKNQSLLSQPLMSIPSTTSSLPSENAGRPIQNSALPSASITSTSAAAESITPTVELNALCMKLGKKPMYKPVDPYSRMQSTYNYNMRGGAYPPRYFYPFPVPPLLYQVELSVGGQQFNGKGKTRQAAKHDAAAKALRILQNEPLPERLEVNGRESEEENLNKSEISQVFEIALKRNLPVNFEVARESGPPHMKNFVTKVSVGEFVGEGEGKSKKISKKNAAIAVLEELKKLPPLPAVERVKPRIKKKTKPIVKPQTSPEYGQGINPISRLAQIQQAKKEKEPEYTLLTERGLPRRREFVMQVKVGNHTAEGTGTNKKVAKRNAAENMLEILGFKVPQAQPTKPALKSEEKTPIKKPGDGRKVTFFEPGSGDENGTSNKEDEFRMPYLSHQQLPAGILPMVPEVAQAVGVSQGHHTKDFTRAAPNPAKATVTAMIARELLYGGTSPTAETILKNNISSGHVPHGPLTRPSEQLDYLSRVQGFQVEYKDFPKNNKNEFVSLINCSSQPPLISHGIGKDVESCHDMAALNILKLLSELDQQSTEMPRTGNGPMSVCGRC

[7] = target: the molecule itself; assay: Y2H 1x1 mating, binder AD fusion, target BD fusion

Measured: binding result

B1: S100B-2 (other, human, UniProt P04271 1-62, looked up)
chain: MSELEKAMVALIDVFHQYSGREGDKHKLKKSELKELINNELSHFLEEIKEQEVVDKVMETLD
notes: Truncated bait; also called truncated S100B
not listed: [6] | [7]
no binding: all other assays above

B2: PPP1R5 (Genbank ID: Y18207) (other, human, UniProt Q9UQK1 1-317, looked up)
chain: MSCTRMIQVLDPRPLTSSVMPVDVAMRLCLAHSPPVKSFLGPYDEFQRRHFVNKLKPLKSCLNIKHKAKSQNDWKCSHNQAKKRVVFADSKGLSLTAIHVFSDLPEEPAWDLQFDLLDLNDISSALKHHEEKNLILDFPQPSTDYLSFRSHFQKNFVCLENCSLQERTVTGTVKVKNVSFEKKVQIRITFDSWKNYTDVDCVYMKNVYGGTDSDTFSFAIDLPPVIPTEQKIEFCISYHANGQVFWDNNDGQNYRIVHVQWKPDGVQTQMAPQDCAFHQTSPKTELESTIFGSPRLASGLFPEWQSWGRMENLASYR
notes: Prey from brain, liver and muscle libraries
no binding: [6] | [7]
